Source: US10624964, “Methods and compositions for stimulating immune response using potent immunostimulatory RNA motifs” (The Trustees of the University of Pennsylvania)

Molecular target: T1, RIG-I full length (UniProt O95786 O95786:1-925)
T1 sequence: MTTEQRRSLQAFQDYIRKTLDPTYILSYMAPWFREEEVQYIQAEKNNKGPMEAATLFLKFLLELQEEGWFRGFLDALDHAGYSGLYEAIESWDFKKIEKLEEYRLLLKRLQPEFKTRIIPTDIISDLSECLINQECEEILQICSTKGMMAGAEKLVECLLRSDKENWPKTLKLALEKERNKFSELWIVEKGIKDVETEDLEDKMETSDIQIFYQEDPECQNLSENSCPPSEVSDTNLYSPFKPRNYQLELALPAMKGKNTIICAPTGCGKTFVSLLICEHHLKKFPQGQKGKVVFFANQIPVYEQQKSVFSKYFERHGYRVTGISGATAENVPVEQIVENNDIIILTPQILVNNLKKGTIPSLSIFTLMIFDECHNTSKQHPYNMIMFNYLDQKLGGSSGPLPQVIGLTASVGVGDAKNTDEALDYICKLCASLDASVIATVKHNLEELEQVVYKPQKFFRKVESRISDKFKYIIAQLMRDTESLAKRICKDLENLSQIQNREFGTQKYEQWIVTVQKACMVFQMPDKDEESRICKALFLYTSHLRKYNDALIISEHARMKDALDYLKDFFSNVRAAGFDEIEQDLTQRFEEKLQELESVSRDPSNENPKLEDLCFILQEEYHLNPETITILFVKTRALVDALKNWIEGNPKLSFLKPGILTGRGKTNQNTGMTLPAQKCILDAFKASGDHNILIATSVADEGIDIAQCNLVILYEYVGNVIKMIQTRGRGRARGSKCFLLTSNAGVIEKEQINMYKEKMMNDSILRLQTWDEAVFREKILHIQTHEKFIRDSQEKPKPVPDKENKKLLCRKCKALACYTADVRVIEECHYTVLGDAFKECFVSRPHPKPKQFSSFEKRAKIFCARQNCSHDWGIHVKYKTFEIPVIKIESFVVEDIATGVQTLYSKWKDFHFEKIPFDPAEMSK
Assay: EMSA; with ATP; 6 pmol RNA, 0-20 pmol RIG-I; affinity equivalent to poly U/UC
Conditions: stem-loop motif 70-114, complementary 5' and 3' ends

B1: DVG-268 ivtRNA (ssRNA)
RNA: ACCAGACAAGAGUUUAAGAGAUAUGUAUCCUUUUAAAUUUUCUUGUCUUCUUGUAAGUUUUUCUUGCUAUUGUCAUAUGGAUAAGUCCAAGACUAUCUUUAUCUAUGUCCACAAGAUUGGUAACUGGGUCAUUCCCUGACCAGAAGUUUGAAGCAAGACUUCCCGGUACCUGGAAGUCUUGGACUUAUCCAUAUGACAAUAGUAAGAAAAACUUACAAGAAGACAAGAAAAUUUAAUAGGAUACAUAUCUCUUAAACUCUUGUCUGGU
modifications: 5'-triphosphate (T7 transcript)
B1: binds.
